Assay results from patent publication US20210346432A1 (Memorial Sloan Kettering, published 2021).
No end group written: not given here. *: point of attachment. Biotin = O=C1N[C@H]2[C@H](CS[C@H]2CCCCC(=O)*)N1

Legend:
ET140-p23 [1] = biological target: T1, ET140-p23 (human, cysteine pairing not given here); test: peptide ELISA on streptavidin plate
T1 construct: also called peptide 23
T1 peptide: Biotin-SGSGCQLRCSSNTPPLTCQ
Experimental: (§1) The peptides were coated onto Streptavidin plates at 2 ug/mL in PBST (PBS+0.05% Tween-20). After washing and blocking with 3% BSA. […] “mIgG1” used in all Examples represents that the variable region is fully human and the Fc part is mouse IgG1. Then HRP anti-mouse IgG detection antibody was added to each well. Finally, the color was developed using TMB substrate. A450 was recorded for data analysis.

ET140-p2 [2] = biological target: T2, ET140-p2 (human); test: peptide ELISA on streptavidin plate
T2 construct: also called peptide 2
T2 peptide: Biotin-SGSGQMAGQCSQNEYFDSL
Experimental: as §1

ET140-p22 [3] = biological target: T3, ET140-p22 (human, cysteine pairing not given here); test: peptide ELISA on streptavidin plate
T3 construct: also called peptide 22
T3 peptide: Biotin-SGSGPCQLRCSSNTPPLTC
Experimental: as §1

ET140-p16 [4] = biological target: T4, ET140-p16 (human, cysteine pairing not given here); test: peptide ELISA on streptavidin plate
T4 construct: also called peptide 16
T4 peptide: Biotin-SGSGLLHACIPCQLRCSSN
Experimental: as §1

ET140-p28 = biological target: T5, ET140-p28 (human, cysteine pairing not given here); test: peptide ELISA on streptavidin plate
T5 construct: also called peptide 28
T5 peptide: Biotin-SGSGSSNTPPLTCQRYCNA
Experimental: as §1

ET140-p5 = biological target: T6, ET140-p5 (human); test: peptide ELISA on streptavidin plate
T6 construct: also called peptide 5
T6 peptide: Biotin-SGSGGQCSQNEYFDSLLHA
Experimental: as §1

ET140-p36 [5] = biological target: T7, ET140-p36 (human, cysteine pairing not given here); test: peptide ELISA on streptavidin plate
T7 construct: also called peptide 36
T7 peptide: Biotin-SGSGCQRYCNASVTNSVKG
Experimental: as §1

ET140-p13 = biological target: T8, ET140-p13 (human, cysteine pairing not given here); test: peptide ELISA, biotin peptide on streptavidin plate
T8 construct: also called peptide 13
T8 peptide: Biotin-SGSGFDSLLHACIPCQLRC
Experimental: as §1

ET140-p26 = biological target: T9, ET140-p26 (human, cysteine pairing not given here); test: as above
T9 construct: also called peptide 26
T9 peptide: Biotin-SGSGRCSSNTPPLTCQRYC
Experimental: as §1

ET140-p10 = biological target: T10, ET140-p10 (human, cysteine pairing not given here); test: as above
T10 construct: also called peptide 10
T10 peptide: Biotin-SGSGNEYFDSLLHACIPCQ
Experimental: as §1

ET140-p38 = biological target: T11, ET140-p38 (human); test: as above
T11 construct: also called peptide 38
T11 peptide: Biotin-SGSGRYCNASVTNSVKGTN
Experimental: as §1

ET140-p18 = biological target: T12, ET140-p18 (human, cysteine pairing not given here); test: as above
T12 construct: also called peptide 18
T12 peptide: Biotin-SGSGHACIPCQLRCSSNTP
Experimental: as §1

ET140-p30 = biological target: T13, ET140-p30 (human, cysteine pairing not given here); test: as above
T13 construct: also called peptide 30
T13 peptide: Biotin-SGSGNTPPLTCQRYCNASV
Experimental: as §1

ET140-p15 = biological target: T14, ET140-p15 (human, cysteine pairing not given here); test: as above
T14 construct: also called peptide 15
T14 peptide: Biotin-SGSGSLLHACIPCQLRCSS
Experimental: as §1

ET140-p37 = biological target: T15, ET140-p37 (human); test: as above
T15 construct: also called peptide 37
T15 peptide: Biotin-SGSGQRYCNASVTNSVKGT
Experimental: as §1

ET140-p19 = biological target: T16, ET140-p19 (human, cysteine pairing not given here); test: as above
T16 construct: also called peptide 19
T16 peptide: Biotin-SGSGACIPCQLRCSSNTPP
Experimental: as §1

ET140-p32 = biological target: T17, ET140-p32 (human, cysteine pairing not given here); test: as above
T17 construct: also called peptide 32
T17 peptide: Biotin-SGSGPPLTCQRYCNASVTN
Experimental: as §1

ET140-p34 = biological target: T18, ET140-p34 (human, cysteine pairing not given here); test: as above
T18 construct: also called peptide 34
T18 peptide: Biotin-SGSGLTCQRYCNASVTNSV
Experimental: as §1

ET140-p29 = biological target: T19, ET140-p29 (human, cysteine pairing not given here); test: as above
T19 construct: also called peptide 29
T19 peptide: Biotin-SGSGSNTPPLTCQRYCNAS
Experimental: as §1

ET140-p17 = biological target: T20, ET140-p17 (human, cysteine pairing not given here); test: as above
T20 construct: also called peptide 17
T20 peptide: Biotin-SGSGLHACIPCQLRCSSNT
Experimental: as §1

ET140-p25 = biological target: T21, ET140-p25 (human, cysteine pairing not given here); test: as above
T21 construct: also called peptide 25
T21 peptide: Biotin-SGSGLRCSSNTPPLTCQRY
Experimental: as §1

ET140-p27 = biological target: T22, ET140-p27 (human, cysteine pairing not given here); test: as above
T22 construct: also called peptide 27
T22 peptide: Biotin-SGSGCSSNTPPLTCQRYCN
Experimental: as §1

ET140-p23 [6] = biological target: T1, ET140-p23; test: as above
Experimental: as §1

ET140-p2 [7] = biological target: T2, ET140-p2; test: as above
Experimental: as §1

ET140-p22 [8] = biological target: T3, ET140-p22; test: as above
Experimental: as §1

ET140-p35 = biological target: T23, ET140-p35 (human, cysteine pairing not given here); test: as above
T23 construct: also called peptide 35
T23 peptide: Biotin-SGSGTCQRYCNASVTNSVK
Experimental: as §1

ET140-p11 = biological target: T24, ET140-p11 (human, cysteine pairing not given here); test: as above
T24 construct: also called peptide 11; ET140-pll
T24 peptide: Biotin-SGSGEYFDSLLHACIPCQL
Experimental: as §1

ET140-p14 = biological target: T25, ET140-p14 (human, cysteine pairing not given here); test: as above
T25 construct: also called peptide 14
T25 peptide: Biotin-SGSGDSLLHACIPCQLRCS
Experimental: as §1

ET140-p1 = biological target: T26, ET140-p1 (human); test: as above
T26 construct: also called peptide 1; ET140-pl
T26 peptide: Biotin-SGSGLQMAGQCSQNEYFDS
Experimental: as §1

ET140-p4 = biological target: T27, ET140-p4 (human); test: as above
T27 construct: also called peptide 4
T27 peptide: Biotin-SGSGAGQCSQNEYFDSLLH
Experimental: as §1

ET140-p3 = biological target: T28, ET140-p3 (human); test: as above
T28 construct: also called peptide 3
T28 peptide: Biotin-SGSGMAGQCSQNEYFDSLL
Experimental: as §1

ET140-p16 [9] = biological target: T4, ET140-p16; test: as above
Experimental: as §1

ET140-p36 [10] = biological target: T7, ET140-p36; test: as above
Experimental: as §1

Measured: binding result

B1: ET140-153 mIgG1 (antibody, V domains shown)
VH: QVQLVQSGAEVKKPGSSVKVSCKASGGTFSSYAISWVRQAPGQGLEWMGRIIPILGIANYAQKFQGRVTITADKSTSTAYMELSSLRSEDTAVYYCARGGYYSHDMWSEDWGQGTLVTVSS
VL: LPVLTQPPSASGTPGQRVTISCSGRSSNIGSNSVNWYRQLPGAAPKLLIYSNNQRPPGVPVRFSGSKSGTSASLAISGLQSEDEATYYCATWDDNLNVHYVFGTGTKVTVLG
notes: also called ET140-3 mIgG1; ET140-3
no binding (tested: 1 ug/mL): ET140-p23 [1] | ET140-p2 [2] | ET140-p22 [3] | ET140-p16 [4] | ET140-p28 | ET140-p5 | ET140-p36 [5]

B2: ET140-204 mIgG1 (antibody, V domains shown)
VH: EVQLVQSGAEMKKPGASLKLSCKASGYTFIDYYVYWMRQAPGQGLESMGWINPNSGGTNYAQKFQGRVTMTRDTSISTAYMELSRLRSDDTAMYYCARSQRDGYMDYWGQGTLVTVSS
VL: QSALTQPASVSASPGQSIAISCTGTSSDVGWYQQHPGKAPKLMIYEDSKRPSGVSNRFSGSKSGNTASLTISGLQAEDEADYYCSSNTRSSTLVFGGGTKLTVLG
notes: also called ET140-54 mIgG1; ET140-54
no binding (tested: 1 ug/mL): ET140-p13 | ET140-p26 | ET140-p10 | ET140-p38 | ET140-p18 | ET140-p30 | ET140-p15 | ET140-p37 | ET140-p19 | ET140-p32 | ET140-p34 | ET140-p29 | ET140-p17 | ET140-p25 | ET140-p27 | ET140-p23 [6] | ET140-p2 [7] | ET140-p22 [8] | ET140-p35 | ET140-p11 | ET140-p14 | ET140-p1 | ET140-p4 | ET140-p3 | ET140-p16 [9] | ET140-p36 [10]

B3: ET140-174 mIgG1 (antibody, V domains shown)
VH: EVQLVQSGAEVKKPGESLKISCKGSGYSFTSYWIGWVRQMPGKGLEWMGIIYPGDSDTRYSPSFQGHVTISADKSISTAYLQWSSLKASDTAMYYCARYSGSFDNWGQGTLVTVSS
VL: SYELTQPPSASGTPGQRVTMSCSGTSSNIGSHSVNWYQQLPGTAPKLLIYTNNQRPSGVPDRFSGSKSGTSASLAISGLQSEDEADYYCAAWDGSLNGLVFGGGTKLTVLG
notes: also called ET140-24 mIgG1; ET140-24
no binding (tested: 1 ug/mL): ET140-p13 | ET140-p26 | ET140-p10 | ET140-p38 | ET140-p18 | ET140-p30 | ET140-p15 | ET140-p37 | ET140-p19 | ET140-p32 | ET140-p34 | ET140-p29 | ET140-p17 | ET140-p25 | ET140-p27 | ET140-p23 [6] | ET140-p2 [7] | ET140-p22 [8] | ET140-p35 | ET140-p11 | ET140-p14 | ET140-p1 | ET140-p4 | ET140-p3 | ET140-p16 [9] | ET140-p36 [10]
